# Numbering of substitutions follows the chain as printed. Where two headings read alike, the source gives them in different places.
# T1: full-length human glucagon-like peptide 2 receptor on HEK293/CRE-Luc/hGLP2R cells (human, UniProt O95838 1-553)
# T1 sequence (looked up): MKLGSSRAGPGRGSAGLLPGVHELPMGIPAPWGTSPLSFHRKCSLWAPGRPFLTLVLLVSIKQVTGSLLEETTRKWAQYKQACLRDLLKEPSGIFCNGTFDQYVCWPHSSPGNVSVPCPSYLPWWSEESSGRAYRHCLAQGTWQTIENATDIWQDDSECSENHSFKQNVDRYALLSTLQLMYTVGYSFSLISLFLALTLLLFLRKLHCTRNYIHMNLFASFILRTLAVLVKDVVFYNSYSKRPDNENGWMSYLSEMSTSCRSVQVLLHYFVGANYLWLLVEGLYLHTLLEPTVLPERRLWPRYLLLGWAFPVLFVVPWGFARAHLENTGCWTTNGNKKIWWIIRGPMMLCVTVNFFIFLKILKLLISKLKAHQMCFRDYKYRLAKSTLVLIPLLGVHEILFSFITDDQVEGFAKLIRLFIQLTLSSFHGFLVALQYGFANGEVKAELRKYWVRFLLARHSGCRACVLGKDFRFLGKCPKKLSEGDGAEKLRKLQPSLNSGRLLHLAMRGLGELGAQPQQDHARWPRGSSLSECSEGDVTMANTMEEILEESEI
# T2: full-length human gastric inhibitory polypeptide receptor on HEK293/CRE-Luc/hGIPR cells (human, UniProt P48546 22-466)
# T2 sequence (looked up): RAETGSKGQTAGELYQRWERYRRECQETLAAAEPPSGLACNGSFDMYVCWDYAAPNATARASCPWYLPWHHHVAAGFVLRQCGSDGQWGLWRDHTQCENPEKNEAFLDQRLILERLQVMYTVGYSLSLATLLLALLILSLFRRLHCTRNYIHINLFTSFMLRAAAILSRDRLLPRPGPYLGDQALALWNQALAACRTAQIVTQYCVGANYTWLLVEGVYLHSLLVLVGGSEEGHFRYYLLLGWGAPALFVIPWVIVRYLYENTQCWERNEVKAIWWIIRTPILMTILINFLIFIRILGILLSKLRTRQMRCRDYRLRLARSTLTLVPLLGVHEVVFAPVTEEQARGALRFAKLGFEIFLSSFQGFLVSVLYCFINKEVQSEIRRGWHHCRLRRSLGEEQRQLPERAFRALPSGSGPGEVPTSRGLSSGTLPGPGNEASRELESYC
# T3: full-length mouse GLP1R on HEK293/CRE-Luc/mGLP1R cells (mouse, UniProt O35659 22-463)
# T3 construct: whole, on cells
# T3 sequence (looked up): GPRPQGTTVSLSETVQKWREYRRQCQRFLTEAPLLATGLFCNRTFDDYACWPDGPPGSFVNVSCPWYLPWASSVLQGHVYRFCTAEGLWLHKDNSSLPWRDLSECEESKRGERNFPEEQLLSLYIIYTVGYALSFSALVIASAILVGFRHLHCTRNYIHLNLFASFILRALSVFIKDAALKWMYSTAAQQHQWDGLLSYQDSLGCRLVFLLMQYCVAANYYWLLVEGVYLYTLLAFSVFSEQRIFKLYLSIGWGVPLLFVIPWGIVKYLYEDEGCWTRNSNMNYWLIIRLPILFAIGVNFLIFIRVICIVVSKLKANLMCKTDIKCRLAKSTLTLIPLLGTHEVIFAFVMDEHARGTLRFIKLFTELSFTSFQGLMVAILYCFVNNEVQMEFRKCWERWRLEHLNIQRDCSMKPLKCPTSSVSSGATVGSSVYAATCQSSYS
# B1: REGN9267-M3190 (antibody, human IgG4 S228P, kappa)
# heavy: not shown
# light: EIVLTQSPGTLSLSPGERDTLSCRASQSIAGRYVAWYQQKPGQAPRLLIYGASSRATGIPDRFSGSGSGTDFTLTISRLEPEDFAVYYCQQYGSSPWTFGQGTKVEIKRTVAAPSVFIFPPSDEQLKSGTASVVCLLNNFYPREAKVQWKVDNALQSGNSQESVTEQDSKDSTYSLSSTLTLSKADYEKHKVYACEVTHQGLSSPVTKSFNRGEC
# modifications: linker-payload M3190 (LP11) on Gln 3 of the N-terminal Q-tag LLQGSG
# notes: antibody-tethered drug conjugate; Q-tag on heavy chain; also called REGN9267 ATDC
# B2: REGN7990 (antibody, human IgG4 S228P, kappa, V domains shown)
# VH: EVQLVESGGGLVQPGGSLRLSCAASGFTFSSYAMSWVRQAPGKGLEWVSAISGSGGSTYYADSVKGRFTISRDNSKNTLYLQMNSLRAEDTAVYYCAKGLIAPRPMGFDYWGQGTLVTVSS
# VL: DIQMTQSPSSVSASVGDRVTITCRASQGINSWLAWYQQKPGKAPKLLIYAASSLQSGVPSRFSGSGSGTDFTLTISSLQPEDFATYYCHQADSFPYTFGQGTKLEIKR
# notes: IgG4; Q-tag on light chain N-terminus; also called mAb 3; REGN7990 unconjugated Ab
# B3: REGN7990-M3190 (antibody, human IgG4 S228P, kappa, V domains shown)
# VH: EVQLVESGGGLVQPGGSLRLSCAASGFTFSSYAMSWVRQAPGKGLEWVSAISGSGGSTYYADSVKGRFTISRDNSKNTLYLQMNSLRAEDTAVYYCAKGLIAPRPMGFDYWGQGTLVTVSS
# VL: B2 VL
# modifications: linker-payload M3190 (LP11) on Gln 3 of the N-terminal Q-tag LLQGSG
# notes: antibody-tethered drug conjugate; also called REGN7990 ATDC; anti-GLP1R mAb3-LP11
# B4: REGN15869 (antibody, human IgG4 S228P, kappa, V domains shown)
# VH: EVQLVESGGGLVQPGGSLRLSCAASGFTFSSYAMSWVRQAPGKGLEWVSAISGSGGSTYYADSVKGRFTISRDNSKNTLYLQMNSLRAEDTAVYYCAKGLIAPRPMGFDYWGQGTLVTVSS
# VL: B2 VL with Q55E
# notes: IgG4; Q-tag on light chain N-terminus; also called REGN15869 unconjugated Ab
# Key:
# [1] = target: T4, full-length human GLP1R on HEK293/CRE-Luc/hGLP1R cells (human, UniProt P43220 24-463); experiment: cell-based or functional assay
# [2] = target: T4, full-length human GLP1R on …; experiment: cell-based or functional assay; remark: listed apart in the source
# [3] = target: T5, full-length cynomolgus GLP1R on HEK293/CRE-Luc/mfGLP1R cells (cynomolgus, UniProt F8V479 24-463); experiment: cell-based or functional assay
# [4] = target: T1, full-length human glucagon-like peptide …; experiment: cell-based or functional assay
# [5] = target: T2, full-length human gastric inhibitory …; experiment: cell-based or functional assay
# [6] = target: T6, full-length human glucagon receptor on HEK293/CRE-Luc/hGCGR cells (human, UniProt P47871 26-477); experiment: cell-based or functional assay
# [7] = target: T7, N-terminal ectodomain of human GLP1R expressed with a myc-myc hexahistidine tag (human, UniProt P43220 24-145, limits assumed); experiment: SPR, captured via anti-hFc, 25 C
# T7 construct: extracellular domain; also called hGLP1R-MMH; hGLP1R.mmh
# [8] = target: T4, full-length human GLP1R on …; experiment: flow cytometry, hGLP1R cells
# [9] = target: T5, full-length cynomolgus GLP1R on …; experiment: flow cytometry, mfGLP1R cells
# [10] = target: T5, full-length cynomolgus GLP1R on …; experiment: flow cytometry, mfGLP1R cells; remark: listed apart in the source
# [11] = target: T4, full-length human GLP1R on …; experiment: flow cytometry, hGLP1R cells; remark: listed apart in the source
# [12] = target: T4, full-length human GLP1R on …; experiment: cell-based or functional assay; remark: listed apart in the source
# [13] = target: T5, full-length cynomolgus GLP1R on …; experiment: cell-based or functional assay; remark: listed apart in the source
# [14] = target: T1, full-length human glucagon-like peptide …; experiment: cell-based or functional assay; remark: listed apart in the source
# [15] = target: T2, full-length human gastric inhibitory …; experiment: cell-based or functional assay; remark: listed apart in the source
# [16] = target: T6, full-length human glucagon receptor on …; experiment: cell-based or functional assay; remark: listed apart in the source
# [17] = target: T3, full-length mouse GLP1R on …; experiment: flow cytometry, mGLP1R cells
# [18] = target: T4, full-length human GLP1R on …; experiment: cell-based or functional assay; remark: listed apart in the source
# [19] = target: human GLP1R on PathHunter eXpress GLP1R CHO-K1 b-Arrestin GPCR cells (human, UniProt P43220 24-463); experiment: cell-based or functional assay
# T7 sequence (P43220 24-145 limits assumed): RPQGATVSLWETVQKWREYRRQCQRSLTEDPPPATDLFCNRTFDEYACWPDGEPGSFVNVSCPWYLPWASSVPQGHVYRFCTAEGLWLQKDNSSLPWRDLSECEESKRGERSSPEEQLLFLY
# T6 sequence (P47871 26-477): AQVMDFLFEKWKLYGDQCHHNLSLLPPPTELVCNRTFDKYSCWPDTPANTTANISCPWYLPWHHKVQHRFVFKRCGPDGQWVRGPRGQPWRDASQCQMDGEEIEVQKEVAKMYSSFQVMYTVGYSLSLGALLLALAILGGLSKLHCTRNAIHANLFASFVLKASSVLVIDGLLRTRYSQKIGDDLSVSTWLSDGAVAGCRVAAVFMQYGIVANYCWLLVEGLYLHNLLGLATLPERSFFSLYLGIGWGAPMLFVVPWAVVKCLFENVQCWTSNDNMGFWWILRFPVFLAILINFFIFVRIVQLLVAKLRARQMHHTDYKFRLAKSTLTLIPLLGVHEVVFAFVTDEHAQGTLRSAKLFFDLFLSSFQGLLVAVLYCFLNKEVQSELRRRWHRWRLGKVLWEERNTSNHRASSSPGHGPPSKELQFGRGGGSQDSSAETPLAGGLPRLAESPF
Binder,CRE-luc EC50 [1] [nM],CRE-luc Relative Potency (% M2361 EC50) [1] [%],CRE-luc Relative Signal:Noise (% M2361) [1] [%],CRE-luc S/N [1] [fold],CRE-luc EC50 [2] [nM],EC50 [8] [nM],Flow S/N [8] [fold],EC50 [9] [nM],Flow S/N [9] [fold],EC50 [10] [nM],Flow S/N [10] [fold],EC50 [11] [nM],Flow S/N [11] [fold],CRE-luc EC50 [12] [nM],CRE-luc EC50 [13] [nM],CRE-luc EC50 [14] [nM],CRE-luc EC50 [15] [nM],CRE-luc EC50 [16] [nM],EC50 [17] [nM],Flow S/N [17] [fold],other results
B1,0.0854,19,107,68.9,0.212,5.08,269,4.44,212,,,,,,,,,,,,CRE-luc EC50 [3]: 0.25 nM; CRE-luc EC50 [4]: > 200 nM; CRE-luc EC50 [5]: > 200 nM; CRE-luc EC50 [6]: > 200 nM; 90 nM hGLP1R.mmh Bound (RU) [7]: 110 RU; Kd [7]: 0.528 nM; koff [7]: 0.000186 s⁻¹; kon [7]: 353000 M⁻¹ s⁻¹; t1/2 [7]: 62 min
B2,,,,,,1.89,256,0.988,205,7.47,528,8.48,260,> 30,> 30,> 30,> 30,> 30,61.4,154,
B3,0.0601,27,135,86.9,0.0724,9.81,117,4.79,103,29.9,486,30.5,231,0.0637,0.257,> 30,> 30,> 30,91.5,29.3,CRE-luc EC50 [3]: 0.0772 nM; CRE-luc EC50 [4]: > 200 nM; CRE-luc EC50 [5]: > 200 nM; CRE-luc EC50 [6]: > 200 nM; 90 nM hGLP1R.mmh Bound (RU) [7]: 22.8 RU; Kd [7]: 2.01 nM; koff [7]: 0.000785 s⁻¹; kon [7]: 390000 M⁻¹ s⁻¹; t1/2 [7]: 14.7 min; CRE-luc EC50 [18]: 0.236 nM; CRE-luc Emax (% GLP-1) [18]: 90.9%; b-arrestin 2 recruitment EC50 [19]: 17.2 nM; b-arrestin 2 recruitment Emax (% GLP-1) [19]: 103%
B4,,,,,,,,,,8.96,132,9.56,106,> 30,> 30,> 30,> 30,> 30,43.1,53.3,CRE-luc EC50 [18]: > 1000 nM; CRE-luc Emax (% GLP-1) [18]: 0.5%; b-arrestin 2 recruitment EC50 [19]: > 1000 nM; b-arrestin 2 recruitment Emax (% GLP-1) [19]: 4.3%
